Measurements: patent EP4062934A1 (CentricsBio, Inc., dated 2022)

Biological target: T1, CD300c antigen (UniProt Q08708 21-183, limits assumed)
T1 construct: also called CD300c protein
T1 sequence (looked up): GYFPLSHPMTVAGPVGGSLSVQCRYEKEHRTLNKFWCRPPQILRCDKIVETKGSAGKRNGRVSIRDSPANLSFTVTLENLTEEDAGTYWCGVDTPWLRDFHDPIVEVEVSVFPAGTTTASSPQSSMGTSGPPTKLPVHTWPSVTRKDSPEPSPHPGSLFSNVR
Test: binding ELISA, antigen coated, anti-Fc HRP detection

B1: anti-CD300c monoclonal antibody CL8 (antibody, V domains shown)
VH: EVQLLESGGGLVQPGGSLRLSCAASGFTFSSYAMSWVRQAPGKGLEWVSAISGSGGSTYYADSVKGRFTISRNNSKNTLYLQMNSLRAEDTAVYYCARSGRYADLTSGGQGTLVTVSS
VL: QSVLTQPPSASGTPGQRVTISCSGSNSNIGNNYVSWYQQLPDTPPKLLIYDNNKRPSGVPDRFSGSKSGTSASLAISGLRSEDEADYYCSSYTSSSTVMFGGGTKLTVL
EC50: 49.7 µg/mL
